In publication PMC7232166, “Expression of Pleurotus ostreatus Laccase Gene in Pichia pastoris and Its Degradation of Corn Stover Lignin” (Microorganisms, 2020):

Tests used:
Test in all cases: purified protein
purified protein [1] = substrate: COc1ccccc1O; details: citrate-phosphate buffer, optimum pH 3.5, 25 °C stated for activity assay
purified protein [2] = substrate: CCn1c(=NN=c2sc3cc(S(=O)(=O)O)ccc3n2CC)sc2cc(S(=O)(=O)O)ccc21; type: biochemical, Pleurotus ostreatus; details: citrate-phosphate buffer, optimum pH 3.0, 25 °C stated for activity assay
purified protein [3] = substrate: COc1cccc(OC)c1O; type: biochemical, Pleurotus ostreatus; details: citrate-phosphate buffer, optimum pH 3.0, 25 °C stated for activity assay

B1: Recombinant laccase X33-Lac-2 (Pleurotus ostreatus) (protein)
chain: AIGPAGNMYIVNEDVSPDGFARSAVVARSVPATDPTPATASIPGVLVQGNKGDNFQLNVVNQLSDTTMLKTTSIHWHGFFQAGSSWADGPAFVTQCPVASGDSFLYNFNVPDQAGTFWYHSHLSTQYCDGLRGPFVVYDPSDPHLSLYDIDNADTVITLEDWYHIVAPQNAAIPTPDSTLINGKGRYAGGPTSPLAIINVESNKRYRFRLVSMSCDPNFTFSIDGHSLLVIEADAVNIVPITVDSIQIFAGQRYSFVLTANQAVDNYWIRANPNLGSTGFVGGINSAILRYAGATEDDPTTTSSTSTPLLETNLVPLENPGAPGPPVPGGADININLAMAFDFTTFELTINGVPFLPPTAPVLLQILSGASTAASLLPSGSIYELEANKVVEISMPALAVGGPHPFHLHGHTFDVIRSAGSTTYNFDTPARRDVVNTGTGANDNVTIRFVTDNPGPWFLHCHIDWHLEIGLAVVFAEDVTSISAPPAAWDDLCPIYNALSDNDKGGIVPS
notes: about 57 kDa on SDS-PAGE
**Q.** With B1 as the protein, how does the Km (purified protein [1]) read?
**A.** 302.4 ± 26.0 µM

**Q.** And the Km (purified protein [2])?
**A.** 13.6 ± 2.9 µM

**Q.** What about the kcat (purified protein [2]) of the same protein?
**A.** 311 ± 21 s⁻¹

**Q.** And the kcat/Km (purified protein [2])?
**A.** 2.28e+07 M⁻¹ s⁻¹

**Q.** And the Km (purified protein [3])?
**A.** 79.2 ± 18.3 µM

**Q.** What about the kcat (purified protein [3]) of the same protein?
**A.** 19.8 ± 1.1 s⁻¹

**Q.** What about the kcat/Km (purified protein [3]) of the same protein?
**A.** 250000 M⁻¹ s⁻¹
